{"source": "paper doi:10.1101/2024.08.16.608256", "about": "(bioRxiv, 2024)", "proteins": {"B1": {"name": "ΔN(45)-YqjD (domain or fragment, E. coli, UniProt P64581 46-101, looked up)", "chain": "ALKQSRYRLGETGDAIAKQTRVAAARADEYVRENPWTGVGIGAAIGVVLGVLLSRR"}, "B2": {"name": "ΔN(12)-YqjD (domain or fragment, E. coli, UniProt P64581 13-101, looked up)", "chain": "ELKSLSDTLEEVLSSSGEKSKEELSKIRSKAEQALKQSRYRLGETGDAIAKQTRVAAARADEYVRENPWTGVGIGAAIGVVLGVLLSRR"}, "B3": {"name": "YqjD (wild type, full-length, N-terminal Xpress-His6-tag) (natural protein, E. coli, UniProt P64581 1-101, looked up)", "chain": "MSKEHTTEHLRAELKSLSDTLEEVLSSSGEKSKEELSKIRSKAEQALKQSRYRLGETGDAIAKQTRVAAARADEYVRENPWTGVGIGAAIGVVLGVLLSRR"}, "B4": {"name": "ΔN(30)-YqjD (domain or fragment, E. coli, UniProt P64581 31-101, looked up)", "chain": "KSKEELSKIRSKAEQALKQSRYRLGETGDAIAKQTRVAAARADEYVRENPWTGVGIGAAIGVVLGVLLSRR"}}, "biological_target": "the molecule itself", "assay": "SDS-resistant dimer on SDS-PAGE with western blot", "data": [{"protein": "B1", "values": [{"measurement": "binding result", "value": "binds"}]}, {"protein": "B2", "values": [{"measurement": "binding result", "value": "binds"}]}, {"protein": "IAKQTRVAAARADEYVRENPWTGVGIGAAIGVVLGVLLSRR (domain or fragment, E. coli, UniProt P64581 61-101, looked up)", "note": "[ΔN(60)-YqjD]", "values": [{"measurement": "binding result", "value": "binds"}]}, {"protein": "B3", "values": [{"measurement": "stoichiometry N", "value": 2}]}, {"protein": "B4", "values": [{"measurement": "binding result", "value": "binds"}]}]}
